Reference: article PMC6862464, “Structural Insights into AQP2 Targeting to Multivesicular Bodies” (International Journal of Molecular Sciences, 2019)

Assays:
Experiment in all cases: other fluorescence titration; Alexa 488-labeled, dephosphorylated AQP2 (around 1 uM) in the cuvette, titrated with unlabeled LIP5; total fluorescence; 20 mM Tris-HCl pH 8, 300 mM NaCl, 0.2% OGNG; triplicate titrations
Details in all cases: both partners purified
[1] = target: T1, full-length human LIP5 M43A (human, UniProt Q9NP79 1-307, M43A)
T1 construct: LIP5, human, full length, point mutant; spacer before the TEV site and His tag, as in m2; Mutant of m2; dimer as said of full-length LIP5 (cited); source: E. coli BL21*(DE3), purified (HisTrap, SEC)
T1 sequence: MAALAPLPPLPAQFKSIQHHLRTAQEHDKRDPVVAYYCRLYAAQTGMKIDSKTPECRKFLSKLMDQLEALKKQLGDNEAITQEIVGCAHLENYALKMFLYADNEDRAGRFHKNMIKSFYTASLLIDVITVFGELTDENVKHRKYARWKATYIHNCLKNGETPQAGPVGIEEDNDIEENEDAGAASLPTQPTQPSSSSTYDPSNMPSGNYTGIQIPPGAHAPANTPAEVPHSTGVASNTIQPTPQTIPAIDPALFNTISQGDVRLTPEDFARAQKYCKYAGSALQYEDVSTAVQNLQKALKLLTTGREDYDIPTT

[2] = target: T2, full-length human LIP5 M64A (human, UniProt Q9NP79 1-307, M64A)
T2 construct: LIP5, human, full length, point mutant; spacer before the TEV site and His tag, as in m2; Mutant of m2; dimer as said of full-length LIP5 (cited); source: E. coli BL21*(DE3), purified (HisTrap, SEC)
T2 sequence: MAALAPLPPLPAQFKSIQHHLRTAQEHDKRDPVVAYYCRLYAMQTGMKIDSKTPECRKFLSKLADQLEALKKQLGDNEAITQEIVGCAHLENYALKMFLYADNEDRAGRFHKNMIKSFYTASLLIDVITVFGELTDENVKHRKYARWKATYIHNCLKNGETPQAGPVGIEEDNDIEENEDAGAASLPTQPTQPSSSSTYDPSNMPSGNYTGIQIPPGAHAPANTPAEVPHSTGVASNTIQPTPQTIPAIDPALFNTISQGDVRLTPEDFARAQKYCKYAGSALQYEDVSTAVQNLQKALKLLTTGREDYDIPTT

[3] = target: T3, full-length human LIP5 L67A (human, UniProt Q9NP79 1-307, L67A)
T3 construct: LIP5, human, full length, point mutant; spacer before the TEV site and His tag, as in m2; Mutant of m2; dimer as said of full-length LIP5 (cited); source: E. coli BL21*(DE3), purified (HisTrap, SEC)
T3 sequence: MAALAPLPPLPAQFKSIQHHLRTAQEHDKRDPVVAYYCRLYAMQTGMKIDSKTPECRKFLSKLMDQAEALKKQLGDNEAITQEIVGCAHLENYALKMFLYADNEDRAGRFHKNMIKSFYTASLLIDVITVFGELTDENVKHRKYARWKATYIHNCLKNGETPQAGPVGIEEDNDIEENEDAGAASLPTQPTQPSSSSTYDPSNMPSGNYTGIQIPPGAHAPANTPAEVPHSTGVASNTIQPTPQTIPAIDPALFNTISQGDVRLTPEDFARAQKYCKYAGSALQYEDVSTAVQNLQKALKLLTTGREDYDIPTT

[4] = target: T4, full-length human LIP5 E68A (human, UniProt Q9NP79 1-307, E68A)
T4 construct: LIP5, human, full length, point mutant; spacer before the TEV site and His tag, as in m2; Mutant of m2; dimer as said of full-length LIP5 (cited); source: E. coli BL21*(DE3), purified (HisTrap, SEC)
T4 sequence: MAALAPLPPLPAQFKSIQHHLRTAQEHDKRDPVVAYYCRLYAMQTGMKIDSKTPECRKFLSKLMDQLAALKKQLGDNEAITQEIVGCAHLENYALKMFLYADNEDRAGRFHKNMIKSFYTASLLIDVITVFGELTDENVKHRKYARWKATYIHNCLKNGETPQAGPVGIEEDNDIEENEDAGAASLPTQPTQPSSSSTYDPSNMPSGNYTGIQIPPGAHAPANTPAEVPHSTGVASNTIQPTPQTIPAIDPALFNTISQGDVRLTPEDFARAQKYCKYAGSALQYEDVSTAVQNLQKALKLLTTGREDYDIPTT

[5] = target: T5, full-length human lysosomal trafficking regulator-interacting protein 5 (FL-LIP5) (human, UniProt Q9NP79 1-307)
T5 construct: spacer between the last LIP5 residue and the TEV protease site that precedes the His tag; same tag, TEV site and linker as ND-LIP5; No TEV cleavage is described; also called full-length LIP5; wild-type LIP5; source: E. coli BL21*(DE3), purified (HisTrap, SEC)
T5 sequence: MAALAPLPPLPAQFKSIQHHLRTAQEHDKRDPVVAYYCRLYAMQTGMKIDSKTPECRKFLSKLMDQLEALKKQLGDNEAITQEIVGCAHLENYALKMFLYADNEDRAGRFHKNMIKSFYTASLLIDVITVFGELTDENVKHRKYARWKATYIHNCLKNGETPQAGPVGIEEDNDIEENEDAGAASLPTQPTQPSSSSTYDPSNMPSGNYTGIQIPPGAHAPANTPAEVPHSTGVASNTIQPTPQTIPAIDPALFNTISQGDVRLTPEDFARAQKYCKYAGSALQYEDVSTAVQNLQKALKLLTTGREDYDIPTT

[6] = target: T6, full-length human LIP5 K71A (human, UniProt Q9NP79 1-307, K71A)
T6 construct: LIP5, human, full length, point mutant; spacer before the TEV site and His tag, as in m2; Mutant of m2; dimer as said of full-length LIP5 (cited); source: E. coli BL21*(DE3), purified (HisTrap, SEC)
T6 sequence: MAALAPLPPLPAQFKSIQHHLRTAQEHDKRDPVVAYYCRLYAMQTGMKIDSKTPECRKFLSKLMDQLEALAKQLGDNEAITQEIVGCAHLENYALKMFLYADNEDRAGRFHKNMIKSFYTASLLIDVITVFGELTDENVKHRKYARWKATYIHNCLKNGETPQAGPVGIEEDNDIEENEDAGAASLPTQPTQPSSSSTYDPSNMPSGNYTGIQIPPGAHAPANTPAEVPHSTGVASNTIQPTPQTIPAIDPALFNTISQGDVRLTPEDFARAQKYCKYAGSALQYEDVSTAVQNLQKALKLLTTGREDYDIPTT

B1: human aquaporin 2 (AQP2), wild-type (natural protein, UniProt P41181 1-271, looked up)
chain: MWELRSIAFSRAVFAEFLATLLFVFFGLGSALNWPQALPSVLQIAMAFGLGIGTLVQALGHISGAHINPAVTVACLVGCHVSVLRAAFYVAAQLLGAVAGAALLHEITPADIRGDLAVNALSNSTTAGQAVTVELFLTLQLVLCIFASTDERRGENPGTPALSIGFSVALGHLLGIHYTGCSMNPARSLAPAVVTGKFDDHWVFWIGPLVGAILGSLLYNYVLFPPAKSLSERLAVLKGLEPDTDWEEREVRRRQSVELHSPQSLPRGTKA
modifications: cysteine residues labeled with C5 maleimide Alexa 488; dephosphorylated with alkaline phosphatase before labeling
notes: concentrations and molar ratios seem to count monomers; His-tag is called uncleavable; also called WT; labeled AQP2; source: Pichia pastoris, purified (HisTrap, SEC) in OGNG; not shown: His-tag, N-terminal, kept
- Kd [1]: 457 nM
- Kd [2]: 271 nM
- Kd [3]: 298 nM
- Kd [4]: 243 nM
- Kd [5]: 237 nM
- Kd [6]: 137 nM
